Earlier results as cited in PMC8291337.

Biological target: Spike protein (SARS-CoV-2) (UniProt P0DTC2)

For CD147 (from UniProt P35613), the Kd is listed as 0.185 µM.
